This test concerns the target GABARAP(ΔG116)–NHNH methyl-fumarate 2 (UniProt O95166). The test can be described thus: cross-linking assay with probe 2, Coomassie SDS-PAGE gel densitometry. The note with it: GABARAP probe 2 15 μM; ATG3 C1 alanine variants 15 μM; 30 min; parent: est. 1.0; read off a plot.
Chain of GABARAP(ΔG116)–NHNH methyl-fumarate 2 (O95166 1-115, stated change not applied): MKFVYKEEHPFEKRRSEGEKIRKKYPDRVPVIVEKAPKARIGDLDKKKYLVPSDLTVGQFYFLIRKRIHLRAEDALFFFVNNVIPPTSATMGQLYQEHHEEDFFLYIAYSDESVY
Chain of ATG3 C1, Q9NT62 V108A (Q9NT62 other isoform, or with tags, fused parts or gaps V108A): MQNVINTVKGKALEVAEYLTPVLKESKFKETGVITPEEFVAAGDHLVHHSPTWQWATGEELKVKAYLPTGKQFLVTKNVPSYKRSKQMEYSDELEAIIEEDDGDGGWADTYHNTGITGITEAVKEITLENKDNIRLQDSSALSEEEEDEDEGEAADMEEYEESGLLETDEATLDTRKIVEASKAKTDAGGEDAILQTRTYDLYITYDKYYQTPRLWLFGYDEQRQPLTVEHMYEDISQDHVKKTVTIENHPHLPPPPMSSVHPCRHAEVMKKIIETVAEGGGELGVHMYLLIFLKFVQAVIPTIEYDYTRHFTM
Chain of ATG3 C1, Q9NT62 E99A (Q9NT62 whole entry E99A): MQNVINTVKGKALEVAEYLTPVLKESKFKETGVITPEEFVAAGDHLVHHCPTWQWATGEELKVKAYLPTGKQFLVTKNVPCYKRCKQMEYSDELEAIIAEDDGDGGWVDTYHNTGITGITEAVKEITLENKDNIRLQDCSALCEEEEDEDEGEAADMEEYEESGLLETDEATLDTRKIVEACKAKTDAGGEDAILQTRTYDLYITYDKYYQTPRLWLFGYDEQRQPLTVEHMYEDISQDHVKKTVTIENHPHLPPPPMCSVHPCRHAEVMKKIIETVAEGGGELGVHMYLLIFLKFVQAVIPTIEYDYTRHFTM
Chain of ATG3 C1, Q9NT62 D92A (Q9NT62 whole entry D92A): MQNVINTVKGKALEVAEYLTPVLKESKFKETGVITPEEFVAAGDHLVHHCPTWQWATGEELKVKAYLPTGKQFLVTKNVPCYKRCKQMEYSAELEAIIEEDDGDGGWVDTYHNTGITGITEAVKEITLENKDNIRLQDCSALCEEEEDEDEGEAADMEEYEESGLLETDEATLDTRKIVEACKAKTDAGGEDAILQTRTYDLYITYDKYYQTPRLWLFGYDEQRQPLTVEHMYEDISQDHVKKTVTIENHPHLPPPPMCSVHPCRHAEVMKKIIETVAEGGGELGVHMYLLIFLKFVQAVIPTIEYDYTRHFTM
Chain of ATG3 C1, Q9NT62 W107A (Q9NT62 whole entry W107A): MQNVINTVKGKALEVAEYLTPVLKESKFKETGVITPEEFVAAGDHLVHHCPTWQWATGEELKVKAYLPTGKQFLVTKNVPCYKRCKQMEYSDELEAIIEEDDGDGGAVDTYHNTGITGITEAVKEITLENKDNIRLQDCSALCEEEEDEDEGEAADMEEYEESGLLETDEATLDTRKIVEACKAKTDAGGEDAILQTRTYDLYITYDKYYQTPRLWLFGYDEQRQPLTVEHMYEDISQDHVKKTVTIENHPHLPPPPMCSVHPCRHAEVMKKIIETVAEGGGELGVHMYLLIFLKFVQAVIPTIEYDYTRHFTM
Chain of ATG3 C1, Q9NT62 I98A (Q9NT62 whole entry I98A): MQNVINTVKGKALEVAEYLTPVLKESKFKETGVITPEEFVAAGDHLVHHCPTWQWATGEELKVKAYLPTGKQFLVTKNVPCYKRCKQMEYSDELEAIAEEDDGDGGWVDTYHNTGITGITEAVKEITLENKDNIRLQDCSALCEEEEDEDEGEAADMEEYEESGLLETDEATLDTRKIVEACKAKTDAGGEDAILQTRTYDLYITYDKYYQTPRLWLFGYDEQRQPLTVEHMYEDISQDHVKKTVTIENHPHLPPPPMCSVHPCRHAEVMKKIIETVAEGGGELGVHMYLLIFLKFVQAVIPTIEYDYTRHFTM
Chain of ATG3 C1, Q9NT62 I97A (Q9NT62 whole entry I97A): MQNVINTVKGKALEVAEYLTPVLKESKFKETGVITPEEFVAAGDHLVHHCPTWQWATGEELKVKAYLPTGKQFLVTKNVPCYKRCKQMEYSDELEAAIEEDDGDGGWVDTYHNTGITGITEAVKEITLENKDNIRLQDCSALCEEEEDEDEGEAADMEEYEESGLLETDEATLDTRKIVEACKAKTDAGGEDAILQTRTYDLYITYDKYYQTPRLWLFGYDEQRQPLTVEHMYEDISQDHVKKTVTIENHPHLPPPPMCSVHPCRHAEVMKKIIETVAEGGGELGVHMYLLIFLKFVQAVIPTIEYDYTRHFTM
Chain of ATG3 C1, Q9NT62 D104A (Q9NT62 whole entry D104A): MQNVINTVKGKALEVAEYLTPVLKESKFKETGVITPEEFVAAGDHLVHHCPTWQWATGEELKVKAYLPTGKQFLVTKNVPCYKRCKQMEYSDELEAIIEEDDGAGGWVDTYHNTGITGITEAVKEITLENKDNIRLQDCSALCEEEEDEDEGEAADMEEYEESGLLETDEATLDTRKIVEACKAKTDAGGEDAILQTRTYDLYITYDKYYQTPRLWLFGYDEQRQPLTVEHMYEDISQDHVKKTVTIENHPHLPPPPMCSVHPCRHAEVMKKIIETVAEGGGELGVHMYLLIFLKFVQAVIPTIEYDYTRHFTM
Chain of ATG3 C1, Q9NT62 D102A (Q9NT62 whole entry D102A): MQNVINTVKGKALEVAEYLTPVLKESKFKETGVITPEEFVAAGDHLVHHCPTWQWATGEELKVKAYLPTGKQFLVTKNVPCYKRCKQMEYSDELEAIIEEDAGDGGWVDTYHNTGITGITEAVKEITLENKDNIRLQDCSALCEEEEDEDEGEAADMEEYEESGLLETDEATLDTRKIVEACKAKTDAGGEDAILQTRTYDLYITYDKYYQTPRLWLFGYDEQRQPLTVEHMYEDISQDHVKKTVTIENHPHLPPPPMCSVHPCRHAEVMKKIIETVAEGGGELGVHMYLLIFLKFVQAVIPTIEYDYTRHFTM
Chain of ATG3 C1, Q9NT62 E95A (Q9NT62 whole entry E95A): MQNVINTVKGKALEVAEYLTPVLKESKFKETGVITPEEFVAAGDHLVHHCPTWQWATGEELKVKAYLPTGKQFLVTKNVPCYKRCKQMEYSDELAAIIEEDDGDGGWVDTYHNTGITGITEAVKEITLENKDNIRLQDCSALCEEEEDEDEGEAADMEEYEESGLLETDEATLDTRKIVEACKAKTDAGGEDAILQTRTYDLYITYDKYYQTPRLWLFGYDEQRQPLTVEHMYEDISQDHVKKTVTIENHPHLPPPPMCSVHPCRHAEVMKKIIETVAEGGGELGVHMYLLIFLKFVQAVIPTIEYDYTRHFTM
Chain of ATG3 C1, Q9NT62 Y111A (Q9NT62 whole entry Y111A): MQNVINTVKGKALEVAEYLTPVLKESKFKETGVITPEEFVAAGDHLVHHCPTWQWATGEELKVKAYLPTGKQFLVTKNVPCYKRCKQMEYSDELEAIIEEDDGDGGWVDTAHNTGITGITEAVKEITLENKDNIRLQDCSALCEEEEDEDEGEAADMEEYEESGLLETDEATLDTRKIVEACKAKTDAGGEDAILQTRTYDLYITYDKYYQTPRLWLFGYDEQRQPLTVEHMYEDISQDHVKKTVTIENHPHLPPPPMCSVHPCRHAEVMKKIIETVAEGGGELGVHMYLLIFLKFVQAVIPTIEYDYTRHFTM
Chain of ATG3 C1, Q9NT62 D109A (Q9NT62 other isoform, or with tags, fused parts or gaps D109A): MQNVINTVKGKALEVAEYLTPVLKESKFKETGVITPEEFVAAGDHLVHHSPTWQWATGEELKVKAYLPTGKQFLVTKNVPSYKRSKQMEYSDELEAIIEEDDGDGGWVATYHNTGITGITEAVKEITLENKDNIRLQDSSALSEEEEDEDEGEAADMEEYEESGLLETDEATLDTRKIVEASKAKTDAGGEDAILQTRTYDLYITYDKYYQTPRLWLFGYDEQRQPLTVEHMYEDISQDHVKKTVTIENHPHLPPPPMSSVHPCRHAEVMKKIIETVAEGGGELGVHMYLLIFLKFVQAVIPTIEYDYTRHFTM
Chain of ATG3 C1, Q9NT62 Y90A (Q9NT62 whole entry Y90A): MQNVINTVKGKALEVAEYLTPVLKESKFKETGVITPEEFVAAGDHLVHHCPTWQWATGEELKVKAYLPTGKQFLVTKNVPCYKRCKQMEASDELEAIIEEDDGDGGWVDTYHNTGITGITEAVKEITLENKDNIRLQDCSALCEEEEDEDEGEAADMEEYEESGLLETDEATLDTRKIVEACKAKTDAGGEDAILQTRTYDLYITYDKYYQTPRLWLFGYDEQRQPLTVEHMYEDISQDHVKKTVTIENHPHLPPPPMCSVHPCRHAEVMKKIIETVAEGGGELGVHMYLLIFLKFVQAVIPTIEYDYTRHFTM
Chain of ATG3 C1, Q9NT62 T110A (Q9NT62 other isoform, or with tags, fused parts or gaps T110A): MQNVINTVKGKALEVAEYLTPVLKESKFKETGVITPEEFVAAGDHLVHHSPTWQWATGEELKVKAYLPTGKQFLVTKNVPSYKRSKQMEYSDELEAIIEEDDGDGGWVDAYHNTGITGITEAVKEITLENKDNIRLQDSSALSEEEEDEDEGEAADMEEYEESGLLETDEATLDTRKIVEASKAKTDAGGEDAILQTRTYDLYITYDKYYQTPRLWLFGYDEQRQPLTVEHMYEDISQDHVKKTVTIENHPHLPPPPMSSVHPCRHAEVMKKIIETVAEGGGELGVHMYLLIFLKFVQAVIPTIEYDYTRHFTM
Turning to ATG3 C1, Q9NT62 T110A, the ratio to parent was found to be 0.8.

Turning to ATG3 C1, Q9NT62 D102A, the ratio to parent turned out to be 0.38.

Consider ATG3 C1, Q9NT62 Y111A, for which the ratio to parent turned out to be 0.69.

For the substance ATG3 C1, Q9NT62 I97A, the ratio to parent was 0.31.

As for ATG3 C1, Q9NT62 D109A, the ratio to parent stood at 1.4.

On to ATG3 C1, Q9NT62 E95A, for which the ratio to parent is 0.35.

Consider ATG3 C1, Q9NT62 E99A, for which the ratio to parent was determined as 0.52.

Consider ATG3 C1, Q9NT62 V108A, for which the ratio to parent worked out at 0.38.

On to ATG3 C1, Q9NT62 Y90A, for which the ratio to parent came out at 0.61.

With ATG3 C1, Q9NT62 I98A, the ratio to parent was 0.74.

ATG3 C1, Q9NT62 D104A: the ratio to parent turned out to be 0.55.

Take ATG3 C1, Q9NT62 D92A: the ratio to parent was determined as 1.

Take ATG3 C1, Q9NT62 W107A: the ratio to parent was 0.17.

These data come from article PMC10214526, “Semisynthetic LC3 Probes for Autophagy Pathways Reveal a Noncanonical LC3 Interacting Region Motif Crucial for the Enzymatic Activity of Human ATG3” (ACS Central Science, 2023).
